# Test results reported in the supplement of paper PMC9170038.
# Test system: MS2 coat protein
# Experiment: apparent KD of MS2 coat protein; higher = weaker reporter binding
# Settings: Eterna round: R107; input ligand: theophylline 20 uM
# Method: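 RNA-MaP round R107: designed RNA switches with theophylline, tryptophan, arginine or FMN aptamers are transcribed on-chip within common flanks. They are titrated with SNAP-549-labelled MS2 coat protein in RNA-MaP buffer (100 mM Tris pH 7.5, 80 mM KCl, 4 mM MgCl2), without ligand or with the indicated ligand. Median apparent KD per design.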
row,Sequence,apparent KD of MS2 coat protein [nM]
1,UUGAUUACCCAAGCGUGAUGGUCCUAGGAACGAGGACCGGUACGGCCGCCACUCGCAAGCAAACAUGAGGAUCACCCAUGUUUAU [theeternabot_exclusion_MS2_Trp_A_19],15.9
2,CCGCCUGCCUCACAUGAGGAUCACCCAUGUCGAGGACCGGUACGGCCGCCACUCGUCGUCGGUAAUACAGGCAUUGAAUAAUAUA [Vetire],14.8
3,CAUGAUAAGUUGGAUACCAGCAUAUGGAACAACAUGAGGAUCACCCAUGUCAAAUGACAUUGCCCUUGGCAGCCACCUACUGUCA [theeternabot_sameState_MS2_Theo_B_5],19.1
4,CCUCAAUCGUCGGCCGCCACUGGAUCAUGCGGAUACAUGAGGAUCACCCAUGUGGGUGUGGUACGCAGGACCGGGACAAGACCCG [#15 Same State - Tryptophan B],579
5,CAUACUUUAGUAUGUUAUGUGGACAGUGAUACCAGAUACGAAAGUAUCCCUUGGCAGCACAACAUGAGGAUCACCCAUGUAUUUU [Theophylline A 4],22.2
6,AUUUUCAUGGUCAUAUAUAUAUCUUCAGAUACCAGACUAUAUUAAGUCCCUUGGCAGCUGUUACAUGAGGAUCACCCAUGUUAUA [JR_ExcTheophyA_Sub013],65.3
7,UUAAUCUUAGAAGAAAACUUUUAAGCAGAAGGAGCGUGAUAAAACACAGGUAGGUCGCUGAAGGGAACAUGAGGAUCACCCAUGU [AstrosSSArgA#18],28.9
8,ACGCGCAGCAGAAGGAGCGUCUUAAUUCUACAUGAGGAUCACCCAUGUUUACAUUGGAUAUGACAGGUAGGUCGCUGGUGUGCGA [#06 Same State - Arginine B],18.1
9,GGUCUCUGGAGCGAUACCAGCUUGAGUGUACUGGCCAGGUACAUGAGGAUCACCCAUGUAAGCCCUUGGCAGCGCUCCAGAGACC [#1 Exclusion - Theophylline B Attempt #15 (HarryS)],14
10,UGAUGGUUCGGAAGGAGCGUGUAAGAACAAGAACAUGAGGAUCACCCAUGUAUUAAUUUAACACAGGUAGGUCGCCGGGUUAUUG [11.J],23.1
11,UAUCCACAUGAGGAUCACCCAUGUAGGGAAGGAGCGGUGAUUUCACCAGGUAGGUCGCCUUGCUGAGGGUUGCCGGUGGAAUCGU [Exclusion - Arginine A (Freestyle 33)],14.8
12,CAUGAAGUAACUGAUACCAGUGUACACAUGAGGAUCACCCAUGUGUUGGGUUUUGUUGUACACCCUUGGCAGCAGAAUCUUUAUG [AstrosExyTheB#8],84.3
13,ACAUUUAACUGAAGGAGCGUGAUAAACAUGAGGAUCACCCAUGUACCACAGAUUUUCAGAUCACAGGUAGGUCGCAGACUAAUGA [JR_ExcArginiB_Sub014],14.1
14,GAUAUGGAAACAUGUCAGAUCCUUACCGGUCGAGGACCGGUACGGCCGCCACUCGAAAACGAGGAACAUGAGGAUCACCCAUGUA [Ex Tryptophan A 20],50.4
15,AAUAAGAGCUCGGAUACCAGCGAAAACAGGCACAUGAGGAUCACCCAUGUUAACGCACUGCGCCCUUGGCAGCCGCACGUGUGUC [theeternabot_sameState_MS2_Theo_B_39],25.4
16,UGCACUCAUGCGGCCGCCACUGUCGGCCGCCACUAAACAUGAGGAUCACCCAUGUAGGACCGGGACAGGACCGGGCAUGGGUGCU [TryBS - #DoubleAptamer 2],20.7
17,AACAUGAGGAUCACCCAUGUCCUCGUGAUUCGAGGACCGGUACGGCCGCCACUCGGUCCUCGCGAGGAGGAGUCAAAGACUCCAA [Omei Trp A SS A v1],229
18,UUAACGAGCUGAAGGAGCGCUCCUCAACAACAUGAGGAUCACCCAUGUACACAUAAUAGGGAGCAGGUAGGUCGCAGCAGGAUGG [ss-argB-?],23.4
19,ACAUGAGGAUCACCCAUGUGCAGAACGGAUACCAGCGUGCUGGUACGCCCUUGGCAGCCGGACAUGAGGAUCACCCAUGUGUGGA [Exclusion Theophylline A GF28],55.7

# Same assay, conditions: Eterna round: R107; input ligand: theophylline 2 mM
row,Sequence,apparent KD of MS2 coat protein [nM]
1,UAUAUAUAACAUGAGGAUCACCCAUGUAAACGAGGACCGGUACGGCCGCCACUCGGCCGGCAAGGGAGAGGACGGGAAACCGUCG [ETA NP+V+V2 #26],23
2,CUACAUUUGUAGAAACCGGUCAACAAUAAUCGAGGACCGGUACGGCCGCCACUCGAUGUGAAAUACACAUGAGGAUCACCCAUGU [Tryptophan A 13],19.9
3,UCGCGAUAGAGAAGGAGCGUCAACACCACUUAACAUGAGGAUCACCCAUGUGUUACUUUGUGACAGGUAGGUCGCUCUAGCGCUU [JR_Nu_ExcArginiB_Sub026],20.9
4,GGAAACCAAAGCGAUACCAGCGUACAUGAAAAGAGCGAAAACAUGAGGAUCACCCAUGUACGCCCUUGGCAGCGCAAAACCAAGG,103
5,UGGGUACAUGAGGAUCACCCAUGUACUGAAGGAGCGAGAAUUAUCUCAGGUAGGUCGCAGACAUGAGGAUCACCCAUGUAGUGGG [Exclusion Arginine A GF 13],20
6,CCUAUGCAGUCGGCCGCCACUGUACAUGAGGAUCACCCAUGUUCCAAAAUAAAAGGAACUGAAAUCAGGACCGGGACUGUAUAGG [Ex Tryptophan B 1],39
7,AGCUCGCAUCCUCUAGCGUCAAAGACGCGUCGAGGACCGGUACGGCCGCCACUCGACUUGAGGAACACCCAAGUCCUAGCGAGCA [TrypAX 12 #SwitchBubble #AlternativeMS2 #MS2Late #CuTurnoff],306
8,AAAUUAUCGGCGGCCGCCACUAGAGUUAGGCUUAUGUACUGGGUAACAUGAGGAUCACCCAUGUAUAGGACCGGGCCAUAAUAAA [Same State - Tryptophan B (Freestyle 4)],57.5
9,UGAUACCAGUCGGCCGCCACUAUGCUAGAUACUAGCAAUAAAUGGGAACAUGAGGAUCACCCAUGUAGGACCGGGACUGGUAUCU,42.7
10,GUUUUGGGAUCGGCCGCCACUACAUGAGGAUCACCCAUGUGGACAAAUAGGGUUUUUAAGCUCGGUAGGACCGGGAUUCGAACAU [Abeis],17.5
11,UUUGAUUAGAGAAGGAGCGUGAUAUUUAUAUAGUGUGUAUGUACAUGAGGAUCACCCAUGUCACAGGUAGGUCGCUCUGAUAAGG [JR_Nu_ExcArginiB_Sub030],13.2
12,UUGGCACGGACGGCCGCCACUCUUUCACAUGAGGAUCACCCAUGUUAUCUAGUCCUCAGCAGAAAGAGGACCGGGUCGGAGUUGG [theeternabot_exclusion_MS2_Trp_B_13],214
13,AUCCACAGCCGAAGGAGCGCAGUAGGAUGACAUGAGGAUCACCCAUGUGUGUGAUGUGGAUUGCAGGUAGGUCGCGGAGUGGAUU [Exclusion - Arginine B (Freestyle 9)],60.1
14,UGUUAUGUGGGAAGGAGCGCAUACUUCACAUGAGGAUCACCCAUGUCAAGACGUGAGUCAGUGCAGGUAGGUCGCCUAGUUAAGA [Same State - Arginine B (Freestyle 17)],78.8
15,AUUAUCGUAGGUUAAAGUUUAGAAACUGAAGGAGCGUGGUAUUACACAGGUAGGUCGCAGAUUUUACAUGAGGAUCACCCAUGUU [JR_ExcArginiA_Sub010],25.1
16,UACUUGCUGACGGCCGCCACUAGAACAUGAGGAUCACCCAUGUACCCGGUCCUAAUCCUCAUGACUAGGACCGGGUCAGCAAGAU [(Trp1)-(Ms2)-(T)'-(M)'-(Trp2)_Design2],35.5
17,UUGAUUACCCAAGCGUGAUGGUCCUAGGAACGAGGACCGGUACGGCCGCCACUCGCAAGCAAACAUGAGGAUCACCCAUGUUUAU [theeternabot_exclusion_MS2_Trp_A_19],14.1
18,CCGCCUGCCUCACAUGAGGAUCACCCAUGUCGAGGACCGGUACGGCCGCCACUCGUCGUCGGUAAUACAGGCAUUGAAUAAUAUA [Vetire],12.1
19,CCUCAAUCGUCGGCCGCCACUGGAUCAUGCGGAUACAUGAGGAUCACCCAUGUGGGUGUGGUACGCAGGACCGGGACAAGACCCG [#15 Same State - Tryptophan B],1030
20,UUAAUCUUAGAAGAAAACUUUUAAGCAGAAGGAGCGUGAUAAAACACAGGUAGGUCGCUGAAGGGAACAUGAGGAUCACCCAUGU [AstrosSSArgA#18],29.4
